Results on 54 sequences are retold here after the Immune Epitope Database (IEDB).

Some targets named below: HLA-A*33:01; HLA-A*11:01; HLA-A*03:01; HLA-A*31:01; HLA-A*68:01; HLA-A*02:03; HLA-A*02:06.
Holding throughout (experiment): IEDB peptide-MHC binding, purified MHC/competitive/radioactivity; filed as Kd, often an IC50 or EC50 that approximates it; ≥ and ≤ were set here for values at or beyond the usual limits of such assays
The mark [1] stands for this setting: source organism: Dengue virus 2 Jamaica/1409/1983.
Setting [2] is: source organism: Dengue virus 3 Martinique/1243/1999.
Where [3] appears, read: source organism: Vaccinia virus WR.
[4] abbreviates: source organism: Dengue virus 4 Philippines/H241/1956.
[5] abbreviates: source organism: Dengue virus 1 Brazil/97-11/1997.
[6] abbreviates: source organism: Dengue virus 1 Nauru/West Pac/1974.
Where [7] appears, read: source organism: Lymphocytic choriomeningitis virus (strain Armstrong).
[8] abbreviates: source organism: Mammarenavirus guanaritoense.
The mark [9] stands for this setting: source organism: Dengue virus 3 Sri Lanka/1266/2000.
Setting [10] is: source organism: Dengue virus 2 Peru/IQT2913/1996.

Take YLWEVKKQR: the Kd in the assay with HLA-A*33:01 (setting [1]) was 65.4 nM.
On to AVVLMGLDK, for which the Kd with HLA-A*11:01 (setting [2]) worked out at 2470 nM.
For TSPGEIKPK, the Kd with HLA-A*03:01 (setting [3]) is not below 61800 nM; with HLA-A*11:01 (setting [3]), 1040 nM; with HLA-A*31:01 (setting [3]), not below 22500 nM; in the assay with HLA-A*33:01 (setting [3]), not below 77700 nM; with HLA-A*68:01 (setting [3]), 4810 nM.
For YQSFLFWFLK the same measures were 20.6 nM, 0.706 nM, 18.4 nM, 3990 nM and 8.31 nM.
The matching figures for SLNRQTVSR: 67.1 nM, 1350 nM, 7.2 nM, 286 nM and 818 nM.
With VIYDSKFEK, the Kd turned out to be 64.3 nM with HLA-A*03:01 (setting [2]) and 41.6 nM in the assay with HLA-A*11:01 (setting [2]).
Regarding TLCAIILGGL, in the assay with HLA-A*02:03 (setting [4]), the dissociation constant Kd was 3.7 nM.
Take ATLTEGVYR: the Kd with HLA-A*31:01 (setting [4]) stood at 7.26 nM.
As to YVASYLLAAL, the Kd in the assay with HLA-A*02:03 (source organism: Homo sapiens) is 1.04 nM.
With LQMEDKAWL, the Kd with HLA-A*02:06 (setting [1]) turned out to be 32.2 nM.
Consider ILHVDNHIGI, for which the Kd with HLA-A*02:03 (source organism: Homo sapiens) amounted to 11.1 nM.
For VSSVNTTSK, in the assay with HLA-A*11:01 (setting [4]), the Kd stood at 1390 nM.
Consider KNGAIKVLR, for which, in the assay with HLA-A*31:01 (setting [5]), the Kd is not below 51000 nM.
With LTIMDLHPGA, the Kd with HLA-A*02:06 (setting [1]) stood at 105 nM.
For MSAAIKDSK, the Kd is 1120 nM with HLA-A*11:01 (setting [5]) and 76.6 nM with HLA-A*68:01 (setting [5]).
As to IMQRGLFGK, the Kd is 85.6 nM with HLA-A*03:01 (setting [4]) and 327 nM in the assay with HLA-A*11:01 (setting [4]).
As for DVPSPAAAQK, the Kd in the assay with HLA-A*68:01 (setting [4]) is 192 nM.
Take ATTIITPMMR: the values for the Kd with HLA-A*11:01 (setting [6]), with HLA-A*31:01 (setting [6]) and with HLA-A*68:01 (setting [6]) were 162 nM, not below 70000 nM and 386 nM, respectively.
With LTALNDMGK, the Kd was 1450 nM in the assay with HLA-A*11:01 (setting [1]) and 528 nM with HLA-A*68:01 (setting [1]).
Regarding MTLMKGASKR, the Kd in the assay with HLA-A*31:01 (setting [4]) was 78.5 nM; in the assay with HLA-A*33:01 (setting [4]) it was 68.2 nM; in the assay with HLA-A*68:01 (setting [4]), 94.5 nM.
IMKDGRKLV: the dissociation constant Kd with HLA-A*02:03 (setting [2]) is 558 nM.
Regarding EVGAIALDFK, the Kd with HLA-A*68:01 (setting [5]) was 15.6 nM.
LLILCTSQI: the Kd in the assay with HLA-A*02:03 (setting [5]) worked out at 8.71 nM.
For TLMSIVSSLH, in the assay with HLA-A*33:01 (setting [7]), the Kd was not below 70000 nM.
Consider TMWHVTRGSV, for which, in the assay with HLA-A*02:03 (setting [4]), the Kd was 24.3 nM.
In the case of HATMLDVDLR, the Kd in the assay with HLA-A*68:01 (source organism: Dengue virus 1 Singapore/S275/1990) was 90.6 nM.
Take IMAYVNQAHH: the Kd was found to be 4010 nM with HLA-A*03:01 (setting [8]), 1120 nM with HLA-A*31:01 (setting [8]), 3920 nM with HLA-A*33:01 (setting [8]) and 97 nM in the assay with HLA-A*68:01 (setting [8]).
With LALSLTFIR, the Kd amounted to 97.1 nM with HLA-A*31:01 (setting [4]) and 6.39 nM in the assay with HLA-A*33:01 (setting [4]).
RSCSFKVGHH: the Kd in the assay with HLA-A*03:01 (setting [8]) is 11400 nM; with HLA-A*31:01 (setting [8]), 477 nM; with HLA-A*33:01 (setting [8]), not below 70000 nM; in the assay with HLA-A*68:01 (setting [8]), not below 36600 nM.
Take AVSTANIFR: the figures for the Kd with HLA-A*11:01 (setting [4]) and with HLA-A*68:01 (setting [4]) were 90.7 nM and 29.6 nM, respectively.
Turning to IFTLTVAWR, the Kd amounted to 163 nM with HLA-A*31:01 (setting [9]) and 5.89 nM in the assay with HLA-A*33:01 (setting [9]).
On to LTMFLITENK, for which the Kd came to 4.57 nM with HLA-A*03:01 (setting [6]), 30.4 nM with HLA-A*11:01 (setting [6]) and 23 nM with HLA-A*68:01 (setting [6]).
On to QMWSLMYFHR, for which the Kd with HLA-A*31:01 (setting [2]) is 1.41 nM; with HLA-A*33:01 (setting [2]), 4.14 nM.
Regarding LLNRFTMAHR, the Kd with HLA-A*31:01 (setting [5]) was not below 48500 nM.
Take LMYFHRRDLR: the Kd with HLA-A*03:01 (setting [1]) was determined as 142 nM; with HLA-A*31:01 (setting [1]), 0.556 nM; with HLA-A*33:01 (setting [1]), 17.3 nM; with HLA-A*68:01 (setting [1]), 207 nM.
On to TTIITPMMR, for which the results for the Kd with HLA-A*11:01 (setting [6]), with HLA-A*33:01 (setting [6]) and with HLA-A*68:01 (setting [6]) were 215 nM, 52.9 nM and 4.15 nM, respectively.
Take NTPECPSASR: the Kd with HLA-A*68:01 (setting [2]) worked out at 4.83 nM.
Consider FTTNIWLKLK, for which the Kd with HLA-A*68:01 (source organism: Dengue virus 2 16681-PDK53) is 12.5 nM.
Regarding GLAMGIMMLK, the Kd with HLA-A*03:01 (setting [5]) came out at 12.1 nM; with HLA-A*11:01 (setting [5]), 156 nM.
As to KQLGQIMLL, the Kd with HLA-A*02:06 (setting [5]) was 5.76 nM.
Consider NIHTAITQVR, for which the Kd in the assay with HLA-A*68:01 (setting [4]) was determined as 167 nM.
Regarding GICSCGAFK, in the assay with HLA-A*11:01 (setting [7]), the Kd is 54.6 nM.
For DISEMGANFR, the values for the Kd with HLA-A*33:01 (setting [5]) and in the assay with HLA-A*68:01 (setting [5]) were 231 nM and 12.9 nM, respectively.
As to ILKEPVHGV, in the assay with HLA-A*02:03 (source organism: Human immunodeficiency virus type 1 BH10), the Kd came out at 6.3 nM.
For ATTFITPMLR, the Kd with HLA-A*11:01 (setting [10]) turned out to be 14 nM; with HLA-A*31:01 (setting [10]), 48.6 nM; in the assay with HLA-A*68:01 (setting [10]), 15.3 nM.
Take QMWQLMYFHR: the Kd with HLA-A*31:01 (setting [5]) is not below 39900 nM; in the assay with HLA-A*33:01 (setting [5]) it was 0.396 nM.
LLKTALLIV: in the assay with HLA-A*02:03 (setting [2]), the Kd was determined as 10.6 nM.
As to IVSSVNMVSR, the Kd was 82.7 nM in the assay with HLA-A*31:01 (setting [9]), 346 nM in the assay with HLA-A*33:01 (setting [9]) and 9.22 nM with HLA-A*68:01 (setting [9]).
With ELGKKKTPR, the Kd with HLA-A*33:01 (setting [1]) was found to be 116 nM.
Regarding CTGSFKLEK, the Kd with HLA-A*11:01 (setting [5]) worked out at 39.8 nM.
Turning to SLAAIANQA, the Kd with HLA-A*02:03 (setting [2]) stood at 55 nM.
For SLVMLLVHYA, the Kd was 640 nM with HLA-A*02:03 (setting [4]) and 423 nM with HLA-A*02:06 (setting [4]).
For the sequence ETTKHAVSR, the Kd stood at 10.6 nM in the assay with HLA-A*33:01 (setting [5]) and 10.3 nM with HLA-A*68:01 (setting [5]).
As to MGANFRAGR, the Kd with HLA-A*68:01 (setting [4]) was determined as 46.7 nM.

Broadly, the Kd is the concentration at which binding is half-saturated.
